In the supplement of paper PMC6757056:
± gives the standard deviation of the averaged measurements.

B1: library; a variant is named by its letters at N, in order (parent)
chain: GCUGUCACCGGUGUAUUACCCUAGUGGUCGACCGGUCUGAUGAGUCUNNNNNNAGACGAAACAGC

Key:
hypoxanthine [1] = variants of: B1; experiment: normalized RNA/DNA level with ligand (relative to sTRSVctl = 100) (log10 (% of sTRSVctl)); ligand: hypoxanthine (xanthine aptamer); higher = less ribozyme self-cleavage, higher mRNA level; settings: ligand concentration (+) RNA-Seq: 5 mM, HEK293T, reporter: mCherry (pCS4076), ligand present: yes
Procedure, shortened: (§1)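 For each 6-well well, 4 µg of library plasmid encoding mCherry-linked ribozyme switches, or eGFP-linked ones in some ligand experiments, was transfected into HEK293T. Any ligand was added 1 h before transfection, and RNA was extracted with EDTA 72 h after it, then reverse-transcribed, amplified, barcoded and sequenced. RNA level was obtained by dividing RNA reads by DNA reads, normalizing to a spiked-in non-cleaving sequence or to the top sequences, then scaling and log-transforming. The top set was 25 sequences, scaling was ×100 with log10, and ≥100 DNA reads were required.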

hypoxanthine [2] = variants of: B1; experiment: normalized RNA/DNA level without ligand (relative to sTRSVctl = 100) (log10 (% of sTRSVctl)); ligand: hypoxanthine (xanthine aptamer); higher = less ribozyme self-cleavage, higher mRNA level; settings: HEK293T, reporter: mCherry (pCS4076), ligand present: no
Procedure, shortened: as §1

Row | Variant | normalized RNA/DNA level with ligand (log10) (hypoxanthine [1]) | normalized RNA/DNA level without ligand (log10) (hypoxanthine [2])
1 | CGGUCU | 1.95 ± 0.034 | 1.89 ± 0.048
2 | GGGUCU | 1.98 ± 0.054 | 1.93 ± 0.037
3 | UGGUCU | 1.91 ± 0.028 | 1.91 ± 0.025
4 | AGGUCU | 1.95 ± 0.028 | 1.813 ± 0.013
5 | CGGUGA | 1.93 ± 0.042 | 1.57 ± 0.042
6 | UGGUGA | 1.88 ± 0.023 | 1.52 ± 0.088
7 | CGGUGC | 1.96 ± 0.052 | 1.8 ± 0.051
8 | UGGUGC | 1.94 ± 0.011 | 1.855 ± 0.0028
9 | AGGUGC | 1.93 ± 0.051 | 1.68 ± 0.04
10 | CGGUGG | 1.862 ± 0.011 | 1.37 ± 0.032
11 | UGGUGG | 1.93 ± 0.038 | 1.596 ± 0.0083
12 | AGGUGG | 1.83 ± 0.021 | 1.391 ± 0.011
13 | GGGUGU | 1.9307 ± 0.0015 | 1.81 ± 0.062
14 | UGGUGU | 1.95 ± 0.067 | 1.599 ± 0.0035
15 | AGGUGU | 1.92 ± 0.028 | 1.49 ± 0.098
16 | CGGUUA | 1.89 ± 0.11 | 1.52 ± 0.045
17 | UGGUUA | 1.94 ± 0.044 | 1.871 ± 0.0021
18 | AGGUUA | 1.93 ± 0.035 | 1.68 ± 0.031
19 | GGGUUC | 1.95 ± 0.053 | 1.91 ± 0.095
20 | AGGUUC | 1.939 ± 0.0087 | 1.83 ± 0.026
21 | CGGUUG | 1.97 ± 0.072 | 1.88 ± 0.062
22 | UGGUUG | 1.962 ± 0.011 | 1.79 ± 0.03
23 | CGGUUU | 1.935 ± 0.017 | 1.791 ± 0.015

Row | Variant | normalized RNA/DNA level with ligand (log10) (hypoxanthine [1]) | normalized RNA/DNA level without ligand (log10) (hypoxanthine [2])
24 | GGGUUU | 1.951 ± 0.015 | 1.951 ± 0.0082
25 | AGGUUU | 1.95 ± 0.073 | 1.87 ± 0.026
26 | UGUAAA | 1.9212 ± 0.0013 | 1.802 ± 0.015
27 | CGUAAC | 1.95 ± 0.047 | 1.77 ± 0.038
28 | UGUAAC | 1.914 ± 0.013 | 1.81 ± 0.024
29 | AGUAAC | 1.92 ± 0.035 | 1.798 ± 0.0049
30 | CGUAAG | 1.95 ± 0.049 | 1.76 ± 0.022
31 | AGUAAG | 1.82 ± 0.032 | 1.39 ± 0.024
32 | CGUAAU | 1.86 ± 0.022 | 1.675 ± 0.013
33 | UGUAAU | 1.91 ± 0.055 | 1.816 ± 0.012
34 | GGUACA | 1.94 ± 0.03 | 1.796 ± 0.0062
35 | AGUACA | 1.87 ± 0.071 | 1.76 ± 0.036
36 | GGUACC | 1.94 ± 0.067 | 1.921 ± 0.016
37 | UGUACC | 2 ± 0.033 | 1.92 ± 0.023
38 | AGUACC | 1.94 ± 0.069 | 1.87 ± 0.03
39 | CGUACG | 1.92 ± 0.056 | 1.87 ± 0.028
40 | UGUACG | 1.929 ± 0.01 | 1.83 ± 0.044
41 | CGUACU | 1.954 ± 0.018 | 1.8632 ± 0.0012
42 | AGUACU | 1.897 ± 0.0094 | 1.89 ± 0.043
43 | CGUAGA | 1.958 ± 0.0094 | 1.8 ± 0.021
44 | GGUAGA | 1.894 ± 0.015 | 1.41 ± 0.058
45 | CGUAGC | 1.9509 ± 0.00084 | 1.875 ± 0.0047
46 | UGUAGC | 1.94 ± 0.046 | 1.796 ± 0.0085

Row | Variant | normalized RNA/DNA level with ligand (log10) (hypoxanthine [1]) | normalized RNA/DNA level without ligand (log10) (hypoxanthine [2])
47 | AGUAGC | 1.911 ± 0.012 | 1.64 ± 0.08
48 | CGUAGG | 1.808 ± 0.0097 | 1.334 ± 0.0095
49 | UGUAGG | 1.895 ± 0.002 | 1.5 ± 0.015
50 | AGUAGG | 1.78 ± 0.051 | 1.368 ± 0.013
51 | CGUAGU | 1.99 ± 0.086 | 1.87 ± 0.037
52 | UGUAGU | 1.88 ± 0.029 | 1.5 ± 0.071
53 | GGUAUA | 1.92 ± 0.074 | 1.83 ± 0.024
54 | UGUAUA | 1.97 ± 0.029 | 1.866 ± 0.0081
55 | CGUAUC | 1.93 ± 0.07 | 1.902 ± 0.018
56 | GGUAUC | 1.957 ± 0.017 | 1.82 ± 0.013
57 | UGUAUC | 1.94 ± 0.052 | 1.92 ± 0.013
58 | AGUAUC | 1.96 ± 0.044 | 1.931 ± 0.013
59 | CGUAUG | 1.91 ± 0.035 | 1.84 ± 0.0095
60 | AGUAUG | 1.824 ± 0.017 | 1.39 ± 0.043
61 | CGUAUU | 1.96 ± 0.026 | 1.732 ± 0.015
62 | GGUAUU | 1.973 ± 0.0023 | 1.88 ± 0.085
63 | UGUAUU | 1.95 ± 0.056 | 1.8992 ± 0.0009
64 | AGUAUU | 1.922 ± 0.015 | 1.86 ± 0.037
65 | GGUCAA | 1.94 ± 0.036 | 1.83 ± 0.034
66 | UGUCAA | 1.9 ± 0.035 | 1.79 ± 0.019
67 | AGUCAA | 1.89 ± 0.051 | 1.8 ± 0.035
68 | CGUCAC | 1.96 ± 0.044 | 1.92 ± 0.024
69 | UGUCAC | 1.9615 ± 0.00089 | 1.885 ± 0.012

Row | Variant | normalized RNA/DNA level with ligand (log10) (hypoxanthine [1]) | normalized RNA/DNA level without ligand (log10) (hypoxanthine [2])
70 | AGUCAC | 1.94 ± 0.06 | 1.883 ± 0.014
71 | GGUCAG | 1.94 ± 0.023 | 1.69 ± 0.012
72 | UGUCAG | 1.89 ± 0.03 | 1.74 ± 0.07
73 | AGUCAG | 1.86 ± 0.13 | 1.64 ± 0.041
74 | CGUCAU | 1.931 ± 0.0026 | 1.92 ± 0.029
75 | GGUCAU | 1.94 ± 0.037 | 1.89 ± 0.041
76 | UGUCAU | 1.939 ± 0.01 | 1.823 ± 0.0053
77 | CGUCCA | 1.957 ± 0.0057 | 1.924 ± 0.0032
78 | UGUCCA | 1.89 ± 0.061 | 1.88 ± 0.057
79 | AGUCCA | 1.95 ± 0.05 | 1.868 ± 0.015
80 | CGUCCC | 1.97 ± 0.051 | 1.98 ± 0.064
81 | GGUCCC | 1.92 ± 0.05 | 1.902 ± 0.0045
82 | AGUCCC | 1.94 ± 0.026 | 1.931 ± 0.012
83 | GGUCCG | 2.01 ± 0.061 | 1.829 ± 0.018
84 | UGUCCG | 1.925 ± 0.0047 | 1.8 ± 0.017
85 | AGUCCG | 1.9 ± 0.09 | 1.528 ± 0.0051
86 | CGUCCU | 2.02 ± 0.035 | 2.02 ± 0.048
87 | GGUCCU | 1.941 ± 0.017 | 1.96 ± 0.061
88 | CGUCGA | 1.914 ± 0.011 | 1.85 ± 0.052
89 | GGUCGA | 1.954 ± 0.0067 | 1.82 ± 0.067
90 | UGUCGA | 1.9 ± 0.061 | 1.65 ± 0.049
91 | CGUCGC | 1.9 ± 0.11 | 1.909 ± 0.01
92 | GGUCGC | 1.97 ± 0.029 | 1.74 ± 0.04

Row | Variant | normalized RNA/DNA level with ligand (log10) (hypoxanthine [1]) | normalized RNA/DNA level without ligand (log10) (hypoxanthine [2])
93 | UGUCGC | 1.9324 ± 0.0018 | 1.89 ± 0.1
94 | AGUCGC | 1.945 ± 0.016 | 1.814 ± 0.016
95 | CGUCGG | 1.9 ± 0.026 | 1.57 ± 0.035
96 | GGUCGG | 1.87 ± 0.031 | 1.65 ± 0.021
97 | CGUCGU | 2.05 ± 0.051 | 1.98 ± 0.036
98 | GGUCGU | 1.99 ± 0.08 | 1.98 ± 0.092
99 | CGUCUA | 1.93 ± 0.025 | 1.87 ± 0.029
100 | AGUCUA | 1.924 ± 0.0097 | 1.836 ± 0.0084
101 | CGUCUC | 2 ± 0.023 | 2.03 ± 0.017
102 | GGUCUC | 2.006 ± 0.016 | 1.96 ± 0.037
103 | UGUCUC | 1.999 ± 0.0092 | 2.013 ± 0.019
104 | AGUCUC | 1.94 ± 0.037 | 1.89 ± 0.026
105 | CGUCUG | 1.95 ± 0.11 | 1.957 ± 0.013
106 | GGUCUG | 1.87 ± 0.06 | 1.71 ± 0.029
107 | UGUCUG | 1.93 ± 0.037 | 1.77 ± 0.03
108 | CGUCUU | 2.01 ± 0.035 | 1.958 ± 0.018
109 | GGUCUU | 1.933 ± 0.018 | 1.94 ± 0.025
110 | UGUCUU | 2.01 ± 0.033 | 1.907 ± 0.0099
111 | AGUCUU | 1.96 ± 0.04 | 1.89 ± 0.036
112 | GGUGAA | 1.9 ± 0.061 | 1.65 ± 0.024
113 | UGUGAA | 1.908 ± 0.012 | 1.76 ± 0.025
114 | AGUGAA | 1.9 ± 0.025 | 1.66 ± 0.059
115 | CGUGAC | 1.916 ± 0.0084 | 1.79 ± 0.04
